# Data reported in PMC4220976, “Small-angle neutron scattering reveals the assembly mode and oligomeric architecture of TET, a large, dodecameric aminopeptidase” (Acta Crystallographica Section D: Biological Crystallography, 2014).
# Changes are numbered by the printed parent chain. In names and notes the source's numbering stands.
# B1: Pyrococcus horikoshii TET2 aminopeptidase (PhTET2), wild type (enzyme)
# chain: MEVRNMVDYELLKKVVEAPGVSGYEFLGIRDVVIEEIKDYVDEVKVDKLGNVIAHKKGEGPKVMIAAHMDQIGLMVTHIEKNGFLRVAPIGGVDPKTLIAQRFKVWIDKGKFIYGVGASVPPHIQKPEDRKKAPDWDQIFIDIGAESKEEAEDMGVKIGTVITWDGRLERLGKHRFVSIAFDDRIAVYTILEVAKQLKDAKADVYFVATVQEEVGLRGARTSAFGIEPDYGFAIDVTIAADIPGTPEHKQVTHLGKGTAIKIMDRSVICHPTIVRWLEELAKKHEIPYQLEILLGGGTDAGAIHLTKAGVPTGALSVPARYIHSNTEVVDERDVDATVELMTKALENIHELKI
# modifications: dPhTET2: random-fractional deuteration, final level approximately 75%; hPhTET2: hydrogenated
# notes: PhTET2, leucyl-aminopeptidase of the M42 family, Pyrococcus horikoshii; It was studied as a dimer (de-oligomerization buffer) and as a dodecamer; The preparation of hPhTET2 is not described separately; also called dPhTET2; hPhTET2; source: E. coli, purified (heating at 85°C, Resource Q, Superose 6); dPhTET2 grown in minimal medium with 85% D2O
# B2: PhTET2 pentamutant (R217S, R220S, F224S, H248S and I292A) (enzyme, Pyrococcus horikoshii)
# chain: B1 chain with R217S, R220S, F224S, H248S, I292A
# modifications: deuterated form: random-fractional deuteration, final level approximately 75%; a hydrogenated form was also used
# notes: PhTET2, leucyl-aminopeptidase of the M42 family, Pyrococcus horikoshii, with five mutations at the interface between the dimers; The mutant was designed in Appolaire et al. (2013) to slow the oligomerization process; Its deuterated and hydrogenated preparations are kept as one molecule; also called pentamutant PhTET2; mutated PhTET2; source: E. coli, purified (heating at 85°C, Resource Q, …)
# B3: Pyrococcus horikoshii TET3 aminopeptidase (PhTET3), hydrogenated (enzyme)
# chain: MDLKGGESMVDWKLMQEIIEAPGVSGYEHLGIRDIVVDVLKEVADEVKVDKLGNVIAHFKGSSPRIMVAAHMDKIGVMVNHIDKDGYLHIVPIGGVLPETLVAQRIRFFTEKGERYGVVGVLPPHLRRGQEDKGSKIDWDQIVVDVGASSKEEAEEMGFRVGTVGEFAPNFTRLNEHRFATPYLDDRICLYAMIEAARQLGDHEADIYIVGSVQEEVGLRGARVASYAINPEVGIAMDVTFAKQPHDKGKIVPELGKGPVMDVGPNINPKLRAFADEVAKKYEIPLQVEPSPRPTGTDANVMQINREGVATAVLSIPIRYMHSQVELADARDVDNTIKLAKALLEELKPMDFTP
# notes: PhTET3, lysyl-aminopeptidase of the M42 family, Pyrococcus horikoshii; It was studied as a dimer (de-oligomerization buffer) and as a dodecamer; also called hPhTET3; hPhTET3 12s; source: E. coli, purified (heating at 85°C, Resource Q, Superose 6; as described by Durá et al., 2009)
# What was measured:
# [1] = target: the molecule itself; assay: SEC; Superose 6 (native polyacrylamide gels also run) after dialysis of the dodecamers against de-oligomerization buffer: 50 mM CAPS, 20 mM NaCl, 20 mM EDTA pH 10
# [2] = target: the molecule itself; assay: small-angle neutron scattering (SANS); homododecameric reference samples: dPhTET2 12s in 42% D2O and hPhTET3 12s in 100% D2O; 20 mM Tris-HCl, 150 mM NaCl pH 7.5; 20°C
# [3] = target: B3; assay: small-angle neutron scattering (SANS) with contrast variation; peak 1 (particle 1) heterododecamer of dPhTET2 and hPhTET3; 4.5 mg/ml; 20 mM Tris-HCl, 150 mM NaCl pH 7.5; 0, 42, 70 and 100% D2O; 20 to 80°C; mass calibrated against water; models scored with CRYSON; details: both partners purified
# [4] = target: the molecule itself; assay: as above
# [5] = target: B3; assay: small-angle neutron scattering (SANS) with contrast variation; peak 2 (particle 2) heterododecamer of dPhTET2 and hPhTET3; 4.5 mg/ml; 20 mM Tris-HCl, 150 mM NaCl pH 7.5; 0, 49, 70 and 100% D2O; 20 to 80°C; mass calibrated against water; models scored with CRYSON; details: both partners purified
# [6] = target: the molecule itself; assay: small-angle neutron scattering (SANS); 1:1 mixtures of preformed homododecameric deuterated and hydrogenated PhTET2 (wild type or pentamutant) in 42% or 100% D2O; temperature raised from 20 to 80°C, 4 h at each temperature
# [7] = target: the molecule itself; assay: small-angle neutron scattering (SANS) with contrast variation; peak 2 (particle 2) heterododecamer of dPhTET2 and hPhTET3; 4.5 mg/ml; 20 mM Tris-HCl, 150 mM NaCl pH 7.5; 0, 49, 70 and 100% D2O; 20 to 80°C; mass calibrated against water; models scored with CRYSON
Binder,stoichiometry N [1],stoichiometry N [2],stoichiometry N [3],stoichiometry N [4],stoichiometry N [5],stoichiometry N [6],stoichiometry N [7]
B1,2,12,1 dPhTET2:hPhTET3 (6:6),6,2 dPhTET2:hPhTET3 (8:4),,
B2,,,,,,12,
B3,,12,,6,,,2
